Values quoted from earlier work, collected in publication PMC9696605.

Target: Fyn SH3 (Homo sapiens) (UniProt P06241)
Sequence (P06241 79-146): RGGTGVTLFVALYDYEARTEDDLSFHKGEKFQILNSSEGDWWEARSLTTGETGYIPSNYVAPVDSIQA

MBP, sequence (P02686 whole entry): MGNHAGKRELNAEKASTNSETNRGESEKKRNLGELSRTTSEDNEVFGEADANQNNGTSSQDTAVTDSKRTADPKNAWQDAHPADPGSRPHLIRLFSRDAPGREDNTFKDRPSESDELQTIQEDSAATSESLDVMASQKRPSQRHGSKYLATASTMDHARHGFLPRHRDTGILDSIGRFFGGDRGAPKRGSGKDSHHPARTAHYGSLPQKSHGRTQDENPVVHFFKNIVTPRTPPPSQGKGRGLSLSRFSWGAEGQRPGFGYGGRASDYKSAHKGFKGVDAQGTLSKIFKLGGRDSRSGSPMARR

MBP (from UniProt P02686)
Kd: 6 µM
